± gives the uncertainty stated by the source.
B1: Steroid hormone receptor ERR2, residues 100 to 176; numbered along this chain, O95718 (parent)
chain: KRLCLVCGDIASGYHYGVASCEACKAFFKRTIQGNIEYSCPATNECEITKRRRKSCQACRFMKCLKVGMLKEGVRLD

Variants of: B1
Experiment: abundance fitness (aPCA) (normalised: wild type 0, dead -1); higher = more abundant; growth selection in yeast, the domain comes from the species named
Details: Homo sapiens

Abundance fitness of substitutions, site by site:
T31: V -0.223 ± 0.048; W -0.925 ± 0.11; C -0.423 ± 0.086; P -0.951 ± 0.19; R -0.678 ± 0.06; N -0.546 ± 0.35; D -0.724 ± 0.2; H -0.655 ± 0.18; I -0.295 ± 0.12; A -0.353 ± 0.061; E -0.744 ± 0.12; G -0.484 ± 0.052; F -1.1 ± 0.43; S -0.175 ± 0.054; L -0.83 ± 0.083; M -0.223 ± 0.073
A23: N -0.658 ± 0.21; V -0.014 ± 0.046; Q -0.039 ± 0.064; R 0.166 ± 0.037; F -0.538 ± 0.24; G 0.321 ± 0.035; D 0.049 ± 0.1; H -0.16 ± 0.099; E 0.094 ± 0.054; L -0.371 ± 0.057; C 0.094 ± 0.067; T -0.376 ± 0.091; P 0.023 ± 0.063; Y -0.56 ± 0.18; I -0.806 ± 0.41; K -0.03 ± 0.059
G17: Q -0.748 ± 0.11; W -0.359 ± 0.075; T -0.337 ± 0.078; R -0.495 ± 0.055; D -0.091 ± 0.11; S -0.266 ± 0.056; H -0.356 ± 0.19; L -0.601 ± 0.068; K -0.477 ± 0.092; E -0.027 ± 0.071; A -0.075 ± 0.045; P -0.416 ± 0.093; V -0.413 ± 0.055; F -0.551 ± 0.26
K29: D -0.014 ± 0.072; T 0.215 ± 0.049; Q 0.129 ± 0.054; A 0.18 ± 0.043; P -0.841 ± 0.16; Y -0.65 ± 0.25; E 0.217 ± 0.053; R 0.085 ± 0.039; S 0.084 ± 0.045; H -0.067 ± 0.1; C -0.335 ± 0.11; F -0.132 ± 0.087; M -0.064 ± 0.065; N -0.193 ± 0.11; G 0.096 ± 0.034; V 0.079 ± 0.038; I -0.481 ± 0.12
E22: N 0.322 ± 0.068; T -0.19 ± 0.061; H -0.091 ± 0.074; K -0.443 ± 0.091; V -0.131 ± 0.048; P -0.188 ± 0.071; Y -0.152 ± 0.076; L -0.233 ± 0.046; W -0.142 ± 0.053; A 0.012 ± 0.046; Q -0.092 ± 0.058; I -0.459 ± 0.12; F -0.449 ± 0.12; S -0.154 ± 0.05
F28: K -0.694 ± 0.11; G -0.687 ± 0.055; V -0.315 ± 0.047; E -0.638 ± 0.084; Y -0.78 ± 0.2; H -0.748 ± 0.18; S -0.832 ± 0.1; Q -0.761 ± 0.14; W 0.167 ± 0.039; A -0.321 ± 0.054; T -0.664 ± 0.12; R -0.757 ± 0.065; L -0.413 ± 0.051; N -0.922 ± 0.35; P -0.725 ± 0.14; C -0.843 ± 0.16
F27: C -0.119 ± 0.063; A -0.621 ± 0.071; H -0.765 ± 0.22; N -1.01 ± 0.27; R -0.715 ± 0.061; I -0.434 ± 0.16; V -0.535 ± 0.064; Q -0.945 ± 0.13; P -0.573 ± 0.12; L -0.204 ± 0.043; W -0.578 ± 0.068; G -0.745 ± 0.06; D -0.751 ± 0.18; S -0.746 ± 0.093; M -0.473 ± 0.073; K -0.506 ± 0.077
Q33: I -0.697 ± 0.22; G -0.165 ± 0.043; W -0.411 ± 0.073; D -0.081 ± 0.082; H -0.229 ± 0.11; S -0.252 ± 0.067; K -0.212 ± 0.094; L -0.146 ± 0.051; E -0.03 ± 0.06; Y -0.054 ± 0.14; M -0.279 ± 0.087; V -0.148 ± 0.048; C -0.114 ± 0.068; F -0.577 ± 0.22; T -0.193 ± 0.089; A -0.075 ± 0.054; R -0.307 ± 0.047; N -0.383 ± 0.13
C21: L -0.625 ± 0.076; T -0.871 ± 0.14; D -0.518 ± 0.3; M -0.961 ± 0.15; K -0.679 ± 0.11; V -0.818 ± 0.09; G -0.866 ± 0.078; S -0.532 ± 0.077; E -0.814 ± 0.11; W -0.94 ± 0.15; F -1.04 ± 0.37; R -0.761 ± 0.075; Y -0.89 ± 0.41; N -1 ± 0.38; Q -1.01 ± 0.19; I -0.693 ± 0.14
V18: Q -0.375 ± 0.089; G -0.259 ± 0.066; F -0.428 ± 0.089; M 0.218 ± 0.42; W -0.657 ± 0.094; P -0.331 ± 0.078; L -0.613 ± 0.071; A -0.26 ± 0.072; Y -0.663 ± 0.14; H -0.245 ± 0.1; D -0.471 ± 0.18; C -0.169 ± 0.076; E -0.399 ± 0.14; R -0.384 ± 0.07
Y14: P -0.315 ± 0.12; N -0.022 ± 0.11; M -0.276 ± 0.083; V 0.136 ± 0.043; C 0.068 ± 0.079; I 0.03 ± 0.091; Q -0.145 ± 0.083; K 0.03 ± 0.077; H -0.034 ± 0.093; W 0.032 ± 0.062; F 0.063 ± 0.083; E 0.101 ± 0.066; S -0.111 ± 0.055; G -0.017 ± 0.051; A 0.163 ± 0.063; L 0.04 ± 0.047; R -0.446 ± 0.075
Y16: W -0.103 ± 0.074; K -0.315 ± 0.084; D 0.008 ± 0.054; C -0.213 ± 0.077; I -0.342 ± 0.087; H -0.378 ± 0.14; S -0.276 ± 0.05; Q -0.366 ± 0.078; T -0.418 ± 0.059; M -0.239 ± 0.074; G -0.08 ± 0.045; N -0.093 ± 0.069; E -0.06 ± 0.055; L -0.332 ± 0.046; V -0.115 ± 0.041; P -0.355 ± 0.067
R30: D -0.255 ± 0.16; M -0.355 ± 0.082; P -0.989 ± 0.26; A -0.312 ± 0.065; T -0.193 ± 0.087; E 0.125 ± 0.049; N -0.381 ± 0.38; I -0.775 ± 0.24; C -0.573 ± 0.12; H -0.357 ± 0.14; Y -0.799 ± 0.23; Q 0.109 ± 0.057; F -0.763 ± 0.19; W -0.121 ± 0.05; L -0.466 ± 0.061; G -0.006 ± 0.037
A26: N -0.504 ± 0.17; V 0.114 ± 0.043; K -0.229 ± 0.066; M -0.116 ± 0.058; C -0.046 ± 0.061; I -0.334 ± 0.18; S -0.338 ± 0.063; P -0.569 ± 0.11; D 0.035 ± 0.081; Y -0.561 ± 0.17; Q 0.051 ± 0.05; E 0.162 ± 0.048; G 0.121 ± 0.036; L -0.135 ± 0.043; H 0.095 ± 0.089; W -0.075 ± 0.042; F -0.467 ± 0.12
S20: N 0.131 ± 0.077; T 0.346 ± 0.047; A 0.353 ± 0.038; Y -0.109 ± 0.12; L -0.185 ± 0.048; K -0.218 ± 0.059; V 0.34 ± 0.039; G 0.282 ± 0.032; R -0.381 ± 0.048; C 0.414 ± 0.047; Q -0.007 ± 0.055; D -0.218 ± 0.094; F -0.485 ± 0.12; P -0.321 ± 0.079; W -0.052 ± 0.047; M -0.322 ± 0.066; I 0.26 ± 0.075; E -0.232 ± 0.051
C24: Q -0.685 ± 0.12; P -1.13 ± 0.22; S -0.869 ± 0.11; G -0.903 ± 0.069; N -0.939 ± 0.3; T -1 ± 0.15; I -0.707 ± 0.21; D 0.265 ± 0.07; L -0.787 ± 0.071; K -1.07 ± 0.2; M -0.859 ± 0.11; Y -0.837 ± 0.2; A -0.897 ± 0.095; R -0.744 ± 0.061; V -0.906 ± 0.084; W -0.784 ± 0.075
G34: F 0.144 ± 0.072; D 0.116 ± 0.092; C -0.227 ± 0.078; N -0.058 ± 0.15; E 0.157 ± 0.051; M -0.041 ± 0.062; A 0.135 ± 0.043; H -0.282 ± 0.12; P -0.904 ± 0.18; I -0.336 ± 0.2
H15: M -0.325 ± 0.089; N -0.143 ± 0.077; W -0.1 ± 0.066; T -0.356 ± 0.094; Q -0.097 ± 0.13; D -0.211 ± 0.1; K -0.363 ± 0.099; C -0.435 ± 0.11; Y -0.085 ± 0.14; P -0.32 ± 0.092; L -0.223 ± 0.062; G -0.068 ± 0.048; F -0.197 ± 0.088; I -0.115 ± 0.081; E -0.045 ± 0.085; V -0.369 ± 0.071
A19: V 0.035 ± 0.038; L -0.046 ± 0.041; N 0.005 ± 0.085; Y -0.223 ± 0.092; S 0.049 ± 0.045; R -0.331 ± 0.041; D 0.046 ± 0.067; C -0.41 ± 0.1; T -0.085 ± 0.056; M -0.117 ± 0.055; P -0.065 ± 0.074; E 0.043 ± 0.05; Q -0.113 ± 0.057; F -0.326 ± 0.14; W -0.307 ± 0.057; I -0.464 ± 0.14; K -0.135 ± 0.055
I32: D -0.642 ± 0.17; L -0.362 ± 0.059; V 0.055 ± 0.044; S -0.184 ± 0.059; N -0.568 ± 0.19; K -0.337 ± 0.08; G -0.344 ± 0.048; M -0.47 ± 0.096; F -0.115 ± 0.12; A -0.21 ± 0.054; Q -0.422 ± 0.082; P -0.589 ± 0.16; C -0.803 ± 0.26; T -0.222 ± 0.067; E -0.148 ± 0.053
G13: Y -0.867 ± 0.33; W -0.64 ± 0.31
K25: T 0.146 ± 0.046; H 0.262 ± 0.062; P 0.278 ± 0.051; F 0.194 ± 0.063; I 0.091 ± 0.063; G 0.41 ± 0.029; Q 0.317 ± 0.045; L 0.224 ± 0.033; R 0.208 ± 0.031; C 0.284 ± 0.051; S 0.222 ± 0.04; E 0.41 ± 0.037; M 0.286 ± 0.048; A 0.445 ± 0.035; Y 0.273 ± 0.067; V 0.344 ± 0.034; D 0.375 ± 0.049

— the Human Domainome abundance scans (Beltran et al. 2025)
